Experimental data as given in US20050112119A1 (Takeda / Millennium, published 2005).
Positions count from the first letter of the chain named.

T1: human CXCR3 (human, UniProt P49682 1-368)
T1 construct: Full-length human CXCR3 expressed on transfected L1.2 murine B lymphoma cells; also called C-X-C chemokine receptor-3; CD183
T1 sequence: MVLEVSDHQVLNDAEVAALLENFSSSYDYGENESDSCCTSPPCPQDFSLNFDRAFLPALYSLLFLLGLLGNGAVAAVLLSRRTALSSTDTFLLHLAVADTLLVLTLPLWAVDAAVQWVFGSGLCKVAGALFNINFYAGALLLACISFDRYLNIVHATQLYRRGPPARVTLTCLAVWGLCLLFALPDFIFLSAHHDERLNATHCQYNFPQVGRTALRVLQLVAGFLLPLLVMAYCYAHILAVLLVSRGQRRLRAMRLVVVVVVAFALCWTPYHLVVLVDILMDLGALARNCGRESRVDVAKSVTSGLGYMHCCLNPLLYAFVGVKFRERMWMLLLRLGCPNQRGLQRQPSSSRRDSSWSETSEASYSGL

T2: human CXCR1 (human, UniProt P25024 1-350)
T2 construct: whole, on cells
T2 sequence (looked up): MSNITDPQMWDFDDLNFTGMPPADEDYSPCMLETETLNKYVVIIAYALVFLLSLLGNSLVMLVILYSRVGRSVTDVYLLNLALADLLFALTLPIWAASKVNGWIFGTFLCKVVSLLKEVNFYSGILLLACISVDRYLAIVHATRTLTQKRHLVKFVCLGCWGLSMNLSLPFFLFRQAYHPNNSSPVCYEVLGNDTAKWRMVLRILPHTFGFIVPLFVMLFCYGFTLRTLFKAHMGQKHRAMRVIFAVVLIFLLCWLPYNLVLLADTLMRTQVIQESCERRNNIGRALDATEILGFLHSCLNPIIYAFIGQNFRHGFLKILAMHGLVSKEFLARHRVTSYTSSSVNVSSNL

T3: human CCR1 (human, UniProt P32246 1-355)
T3 construct: whole, on cells
T3 sequence (looked up): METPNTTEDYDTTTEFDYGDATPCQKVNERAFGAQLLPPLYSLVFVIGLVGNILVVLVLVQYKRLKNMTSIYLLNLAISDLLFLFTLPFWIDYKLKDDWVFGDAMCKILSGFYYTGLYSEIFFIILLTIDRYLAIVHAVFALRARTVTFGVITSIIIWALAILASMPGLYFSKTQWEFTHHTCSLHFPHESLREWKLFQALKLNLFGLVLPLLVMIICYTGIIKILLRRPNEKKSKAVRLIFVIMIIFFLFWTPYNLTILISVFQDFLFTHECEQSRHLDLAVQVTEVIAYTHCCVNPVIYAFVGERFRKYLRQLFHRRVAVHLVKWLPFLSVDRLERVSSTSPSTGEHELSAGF

T4: human CXCR2 (human, UniProt P25025 1-360)
T4 construct: whole, on cells
T4 sequence (looked up): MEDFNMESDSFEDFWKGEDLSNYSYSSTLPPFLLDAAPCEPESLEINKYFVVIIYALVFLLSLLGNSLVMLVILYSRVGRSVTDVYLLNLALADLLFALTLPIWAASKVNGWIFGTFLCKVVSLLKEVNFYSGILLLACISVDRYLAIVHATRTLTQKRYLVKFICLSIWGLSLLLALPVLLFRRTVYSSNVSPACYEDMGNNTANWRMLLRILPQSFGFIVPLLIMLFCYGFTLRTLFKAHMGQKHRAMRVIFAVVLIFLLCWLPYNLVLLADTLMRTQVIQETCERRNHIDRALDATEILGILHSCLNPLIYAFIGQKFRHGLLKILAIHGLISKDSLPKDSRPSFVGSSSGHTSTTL

T5: human CCR3 (human, UniProt P51677 1-355)
T5 construct: whole, on cells
T5 sequence (looked up): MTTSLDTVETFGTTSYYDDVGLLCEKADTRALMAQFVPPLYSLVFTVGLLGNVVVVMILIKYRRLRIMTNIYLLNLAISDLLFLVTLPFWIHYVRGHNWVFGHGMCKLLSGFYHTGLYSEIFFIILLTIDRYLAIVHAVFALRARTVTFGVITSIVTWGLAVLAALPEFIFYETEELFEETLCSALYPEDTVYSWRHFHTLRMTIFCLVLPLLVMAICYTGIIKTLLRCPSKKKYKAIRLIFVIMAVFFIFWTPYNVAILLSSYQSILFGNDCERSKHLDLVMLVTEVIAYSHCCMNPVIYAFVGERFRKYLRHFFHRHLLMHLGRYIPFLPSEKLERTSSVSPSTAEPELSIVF

T6: human CCR4 (human, UniProt P51679 1-360)
T6 construct: whole, on cells
T6 sequence (looked up): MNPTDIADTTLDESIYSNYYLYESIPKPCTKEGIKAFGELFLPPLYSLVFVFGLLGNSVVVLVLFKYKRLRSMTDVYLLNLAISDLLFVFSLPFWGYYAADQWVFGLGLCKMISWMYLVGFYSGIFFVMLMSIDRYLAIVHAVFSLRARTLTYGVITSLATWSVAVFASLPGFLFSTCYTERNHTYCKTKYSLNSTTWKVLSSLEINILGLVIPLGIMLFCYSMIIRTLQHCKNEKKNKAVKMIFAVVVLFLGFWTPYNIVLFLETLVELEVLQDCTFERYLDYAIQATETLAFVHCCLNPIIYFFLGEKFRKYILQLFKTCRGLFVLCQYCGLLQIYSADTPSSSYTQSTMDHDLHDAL

B1: human monoclonal antibody 5H7 (antibody, human IgG2, V domains shown)
VH: QVQVVQSGAEVKKPGASVKVSCKTSGYTFTGNYIHWVRQAPGQGLEWMGWINPNSGGTNFAQKFQGRVTMTRDTSITTAYMVLSRLRSDDTAVYYCARGGNNMIVVARGYYGMDVWGQGTTVTVSS
VL: DIQMTQSPSSLSASVGDRVTITCRASQSIGRYLNWYQQKPGKAPKLLIYGASSLQSGVPSRFSGSGSGTEFTLTISSLQPEDFATYYCQQSFRVPISFGQGTRLEIK
notes: The hybridoma antibody as tested is human IgG2, kappa; also called human mAb 5H7; antibody of hybridoma LS328-5H7-2-6 (ATCC PTA-5388)
B2: human monoclonal antibody 7H5 (antibody, human IgG2, V domains shown)
VH: B1 VH with T24A, N32Y, N54D, F60Y, T77S, S84N, R98K, N101I
VL: B1 VL with A25T, L73F, T74I, S97T
notes: The hybridoma antibody as tested is human IgG2, kappa; also called human mAb 7H5; antibody of hybridoma LS329-7H5-2-19-7 (ATCC PTA-5389)

How the values were obtained:
[1] = target: T1, human CXCR3; experiment: flow cytometry on CXCR3 L1.2 transfectants, biotinylated antibody, streptavidin-PE; 100% is the fluorescence at 10 µg/ml
Experimental: The strength of human monoclonal antibody 5H7 and human monoclonal antibody 7H5 binding to CXCR3 was measured using CXCR3 transfectants. The mean streptavidin-PE fluorescence detected when 10 μg/ml of each purified mAb was used to stain CXCR3 transfectants was used as 100% fluorescence.

[2] = target: T1, human CXCR3; experiment: cell-based or functional assay
[3] = target: T2, human CXCR1; experiment: flow cytometry, hybridoma supernatant on L1.2 transfectants, PE anti-human IgG
Experimental: (§1) Three days after the last immunization, five animals were sacrificed, their spleen cells were isolated, combined and used to produce hybridomas by standard methods. About 3×10⁸ spleen cells were fused with 5- to 10-fold fewer SP2/0-Ag14 fusion partner cells (ATCC, No. CRL-1581, Manassas, Va.) or P3X63Ag8.653 fusion partner cells (ATCC, No. CRL-1580, Manassas, Va.), by brief resuspension in polyethylene glycol 1500 (50% in 75 mM HEPES, Boehringer-Mannheim, now Roche Applied Science, Indianapolis, Ind.), to generate the hybridomas. After fusion, the cells were selected by incubation for two weeks in hypoxanthine, aminopterin, thymidine (HAT) medium specificity was assessed by staining CXCR3 transfectants, control L1.2 cells and L1.2 cells that expressed human CCR1, CCR2, CCR3, CCR4, CCR5, CXCR1, CXCR2, or CXCR4 (Qin et al. (1998) J. Clin. Invest. 101:746-54). The binding of antibody from the hybridoma supernatants to receptor transfectants was detected by phycoerythrin-conjugated anti-human IgG with analysis by flow cytometry. Positive wells were those that contained supernatant which stained the CXCR3 transfectants, but not L1.2 cells which expressed the other chemokine receptors tested. Positive wells were subcloned to yield hybridoma cell lines. Hybridoma cultures were maintained in DMEM with 10% fetal calf serum, 10 units/ml interleukin-6, 0.1% L-glutamine, and 0.1% penicillin/streptomycin.

[4] = target: T3, human CCR1; experiment: as above
Experimental: as §1

[5] = target: T7, human CCR2 (human, UniProt P41597 1-374); experiment: as above
T7 construct: whole, on cells
Experimental: as §1

[6] = target: T4, human CXCR2; experiment: as above
Experimental: as §1

[7] = target: T5, human CCR3; experiment: as above
Experimental: as §1

[8] = target: T8, human CXCR4 (human, UniProt P61073 1-352); experiment: as above
T8 construct: whole, on cells
Experimental: as §1

[9] = target: T9, human CCR5 (human, UniProt P51681 1-352); experiment: as above
T9 construct: whole, on cells
Experimental: as §1

[10] = target: T6, human CCR4; experiment: as above
Experimental: as §1

T9 sequence (P51681 whole entry): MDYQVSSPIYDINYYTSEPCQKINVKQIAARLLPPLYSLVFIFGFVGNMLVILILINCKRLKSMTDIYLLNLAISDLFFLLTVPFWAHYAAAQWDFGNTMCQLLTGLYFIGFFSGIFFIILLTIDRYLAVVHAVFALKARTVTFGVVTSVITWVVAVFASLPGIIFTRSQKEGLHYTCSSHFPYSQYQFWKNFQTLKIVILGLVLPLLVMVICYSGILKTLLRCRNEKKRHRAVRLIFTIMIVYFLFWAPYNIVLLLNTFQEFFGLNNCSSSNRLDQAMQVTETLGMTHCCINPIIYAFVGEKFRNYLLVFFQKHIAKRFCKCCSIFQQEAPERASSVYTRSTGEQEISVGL
T7 sequence (P41597 whole entry): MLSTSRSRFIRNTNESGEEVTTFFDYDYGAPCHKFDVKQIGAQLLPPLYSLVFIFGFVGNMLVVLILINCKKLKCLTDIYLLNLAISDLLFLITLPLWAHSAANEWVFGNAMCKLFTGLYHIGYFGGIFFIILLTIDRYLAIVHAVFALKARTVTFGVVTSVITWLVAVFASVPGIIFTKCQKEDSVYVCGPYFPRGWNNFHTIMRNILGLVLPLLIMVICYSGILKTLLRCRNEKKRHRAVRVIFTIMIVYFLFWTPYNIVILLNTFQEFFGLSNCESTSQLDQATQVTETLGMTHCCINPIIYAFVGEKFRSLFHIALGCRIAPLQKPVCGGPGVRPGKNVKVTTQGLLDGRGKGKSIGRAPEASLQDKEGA
T8 sequence (P61073 whole entry): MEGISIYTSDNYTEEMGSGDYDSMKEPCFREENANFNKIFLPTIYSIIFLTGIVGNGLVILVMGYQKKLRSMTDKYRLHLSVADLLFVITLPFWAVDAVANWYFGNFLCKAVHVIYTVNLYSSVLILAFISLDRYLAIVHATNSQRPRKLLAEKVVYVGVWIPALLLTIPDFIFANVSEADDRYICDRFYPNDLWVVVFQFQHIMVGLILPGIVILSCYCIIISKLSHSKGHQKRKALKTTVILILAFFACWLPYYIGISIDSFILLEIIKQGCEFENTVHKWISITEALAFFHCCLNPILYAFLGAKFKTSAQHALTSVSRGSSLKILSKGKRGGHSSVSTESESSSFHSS

| Binder | EC50 [1] [nM] | IC50 of inhibition of chemotaxis of CXCR3 transfectants toward I-TAC [2] [µg/mL] | IC50 of inhibition of chemotaxis of CXCR3 transfectants toward IP-10 [2] [µg/mL] | IC50 of inhibition of chemotaxis of CXCR3 transfectants toward MIG [2] [µg/mL] | binding result [3] | binding result [4] | binding result [5] | binding result [6] | binding result [7] | binding result [8] | binding result [9] | binding result [10] |
| --- | --- | --- | --- | --- | --- | --- | --- | --- | --- | --- | --- | --- |
| B1 | 0.5 | 1.2 | 0.7 | 2.9 | no binding | no binding | no binding | no binding | no binding | no binding | no binding | no binding |
| B2 | 1.2 | – | – | – | no binding | no binding | no binding | no binding | no binding | no binding | no binding | no binding |
